Test results as given in patent US20240158538A1 (HUMMINGBIRD BIOSCIENCE HOLDINGS PTE, published 2024).
Positions count from the first letter of the chain named. Read-outs that look alike come from different tables or passages of the source.

Key:
B7H3 (ELISA coat) [1] = target: T1, B7H3 (ELISA coat) (human, UniProt Q5ZPR3 29-461, limits assumed); assay: ELISA, plate coated with B7H3
T1 construct: Species read from the list 'human VISTA, PD-1, PD-L1, ...'; also called CD276
T1 sequence (looked up): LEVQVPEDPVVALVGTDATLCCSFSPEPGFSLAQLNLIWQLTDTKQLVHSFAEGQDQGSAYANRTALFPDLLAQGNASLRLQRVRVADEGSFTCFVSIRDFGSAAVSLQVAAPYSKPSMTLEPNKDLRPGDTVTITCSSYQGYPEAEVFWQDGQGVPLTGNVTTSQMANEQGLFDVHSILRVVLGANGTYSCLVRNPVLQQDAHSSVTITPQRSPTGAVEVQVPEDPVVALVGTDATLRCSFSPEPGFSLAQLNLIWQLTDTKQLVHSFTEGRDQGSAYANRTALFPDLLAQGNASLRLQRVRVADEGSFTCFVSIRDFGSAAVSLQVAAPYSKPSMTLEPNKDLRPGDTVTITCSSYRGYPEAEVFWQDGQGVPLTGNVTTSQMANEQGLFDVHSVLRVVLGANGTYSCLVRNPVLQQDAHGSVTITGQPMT

B7H7 (ELISA coat) [2] = target: T2, B7H7 (ELISA coat) (human, UniProt Q9UM44 23-344, limits assumed); assay: ELISA, plate coated with B7H7
T2 construct: Species read from the list 'human VISTA, PD-1, PD-L1, ...'; also called HHLA2
T2 sequence (looked up): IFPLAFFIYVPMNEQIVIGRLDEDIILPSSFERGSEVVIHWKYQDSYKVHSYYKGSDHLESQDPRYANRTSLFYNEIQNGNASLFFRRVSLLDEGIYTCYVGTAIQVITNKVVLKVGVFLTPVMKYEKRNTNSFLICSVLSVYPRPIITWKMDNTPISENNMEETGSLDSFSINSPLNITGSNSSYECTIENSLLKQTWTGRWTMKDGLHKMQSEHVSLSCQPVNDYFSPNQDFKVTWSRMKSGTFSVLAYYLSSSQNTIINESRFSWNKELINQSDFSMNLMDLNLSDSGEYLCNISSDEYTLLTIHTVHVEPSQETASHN

human PD-L1 (ELISA coat) [3] = target: T3, human PD-L1 (ELISA coat) (human, UniProt Q9NZQ7 19-239); assay: ELISA, plate coated with B7H1 (PDL1)
T3 sequence (Q9NZQ7 19-239 limits assumed): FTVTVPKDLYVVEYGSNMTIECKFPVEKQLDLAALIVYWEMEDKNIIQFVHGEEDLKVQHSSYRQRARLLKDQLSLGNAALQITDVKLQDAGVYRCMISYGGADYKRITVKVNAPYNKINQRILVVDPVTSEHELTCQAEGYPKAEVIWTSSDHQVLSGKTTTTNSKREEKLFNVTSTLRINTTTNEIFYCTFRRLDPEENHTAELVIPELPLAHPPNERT

B7H6 (ELISA coat) [4] = target: T4, B7H6 (ELISA coat) (human, UniProt Q68D85 25-262, limits assumed); assay: ELISA, plate coated with B7H6
T4 construct: Species read from the list 'human VISTA, PD-1, PD-L1, ...'; also called NCR3LG1
T4 sequence (looked up): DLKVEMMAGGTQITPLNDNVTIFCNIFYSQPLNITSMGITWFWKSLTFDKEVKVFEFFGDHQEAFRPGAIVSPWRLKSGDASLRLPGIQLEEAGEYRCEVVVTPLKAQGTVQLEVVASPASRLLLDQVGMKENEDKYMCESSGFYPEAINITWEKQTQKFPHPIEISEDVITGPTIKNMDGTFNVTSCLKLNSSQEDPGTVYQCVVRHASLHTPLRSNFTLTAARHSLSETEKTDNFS

CTLA4 (ELISA coat) [5] = target: T5, CTLA4 (ELISA coat) (human, UniProt P16410 36-162, limits assumed); assay: ELISA, plate coated with CTLA4
T5 construct: Species read from the list 'human VISTA, PD-1, PD-L1, ...'
T5 sequence (P16410 36-162 limits assumed): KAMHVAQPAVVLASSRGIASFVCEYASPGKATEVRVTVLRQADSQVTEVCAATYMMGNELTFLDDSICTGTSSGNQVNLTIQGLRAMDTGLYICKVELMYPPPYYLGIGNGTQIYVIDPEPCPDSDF

PD-1 (ELISA coat) [6] = target: T6, PD-1 (ELISA coat) (human, UniProt Q15116 25-167, limits assumed); assay: ELISA, plate coated with PD1
T6 construct: Species read from the list 'human VISTA, PD-1, PD-L1, ...'
T6 sequence (Q15116 25-167 limits assumed): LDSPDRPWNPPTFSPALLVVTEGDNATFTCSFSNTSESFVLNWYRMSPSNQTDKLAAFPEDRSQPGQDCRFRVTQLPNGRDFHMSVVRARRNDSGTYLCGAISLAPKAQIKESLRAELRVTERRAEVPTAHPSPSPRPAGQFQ

B7H4 (ELISA coat) [7] = target: T7, B7H4 (ELISA coat) (human, UniProt Q7Z7D3 25-258, limits assumed); assay: ELISA, plate coated with B7H4
T7 construct: Species read from the list 'human VISTA, PD-1, PD-L1, ...'; also called VTCN1
T7 sequence (looked up): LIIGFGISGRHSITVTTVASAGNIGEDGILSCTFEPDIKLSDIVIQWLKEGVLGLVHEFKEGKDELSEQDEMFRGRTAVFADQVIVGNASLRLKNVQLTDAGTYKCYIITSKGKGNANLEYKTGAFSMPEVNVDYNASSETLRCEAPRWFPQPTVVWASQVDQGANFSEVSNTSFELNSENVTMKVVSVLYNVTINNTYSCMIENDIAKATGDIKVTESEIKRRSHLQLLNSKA

PD-1 (ELISA coat) [8] = target: T6, PD-1 (ELISA coat); assay: ELISA, plate coated with PD1; remark: listed apart in the source
B7H6 (ELISA coat) [9] = target: T4, B7H6 (ELISA coat); assay: ELISA, plate coated with B7H6; remark: listed apart in the source
human PD-L1 (ELISA coat) [10] = target: T3, human PD-L1 (ELISA coat); assay: ELISA, plate coated with B7H1 (PDL1); remark: listed apart in the source
CTLA4 (ELISA coat) [11] = target: T5, CTLA4 (ELISA coat); assay: ELISA, plate coated with CTLA4; remark: listed apart in the source
B7H4 (ELISA coat) [12] = target: T7, B7H4 (ELISA coat); assay: ELISA, plate coated with B7H4; remark: listed apart in the source
B7H7 (ELISA coat) [13] = target: T2, B7H7 (ELISA coat); assay: ELISA, plate coated with B7H7; remark: listed apart in the source
B7H3 (ELISA coat) [14] = target: T1, B7H3 (ELISA coat); assay: ELISA, plate coated with B7H3; remark: listed apart in the source
human PD-L1 (ELISA coat) [15] = target: T3, human PD-L1 (ELISA coat); assay: ELISA, plate coated with B7H1 (PDL1); remark: listed apart in the source
B7H6 (ELISA coat) [16] = target: T4, B7H6 (ELISA coat); assay: ELISA, plate coated with B7H6; remark: listed apart in the source
B7H7 (ELISA coat) [17] = target: T2, B7H7 (ELISA coat); assay: ELISA, plate coated with B7H7; remark: listed apart in the source
PD-1 (ELISA coat) [18] = target: T6, PD-1 (ELISA coat); assay: ELISA, plate coated with PD1; remark: listed apart in the source
B7H3 (ELISA coat) [19] = target: T1, B7H3 (ELISA coat); assay: ELISA, plate coated with B7H3; remark: listed apart in the source
CTLA4 (ELISA coat) [20] = target: T5, CTLA4 (ELISA coat); assay: ELISA, plate coated with CTLA4; remark: listed apart in the source
B7H4 (ELISA coat) [21] = target: T7, B7H4 (ELISA coat); assay: ELISA, plate coated with B7H4; remark: listed apart in the source
B7H6 (ELISA coat) [22] = target: T4, B7H6 (ELISA coat); assay: ELISA, plate coated with B7H6; remark: listed apart in the source
PD-1 (ELISA coat) [23] = target: T6, PD-1 (ELISA coat); assay: ELISA, plate coated with PD1; remark: listed apart in the source
B7H7 (ELISA coat) [24] = target: T2, B7H7 (ELISA coat); assay: ELISA, plate coated with B7H7; remark: listed apart in the source
CTLA4 (ELISA coat) [25] = target: T5, CTLA4 (ELISA coat); assay: ELISA, CTLA4 coated
human PD-L1 (ELISA coat) [26] = target: T3, human PD-L1 (ELISA coat); assay: ELISA, human PD-L1 coated
human HER3 = human HER3 (human, UniProt P21860 20-643); assay: ELISA, human HER3 coated
B7H3 (ELISA coat) [27] = target: T1, B7H3 (ELISA coat); assay: ELISA, B7H3 coated
B7H4 (ELISA coat) [28] = target: T7, B7H4 (ELISA coat); assay: ELISA, plate coated with B7H4; remark: listed apart in the source

B1: anti-VISTA clone V4-C24 IgG1 (antibody, V domains shown)
VH: QVQLQESGPGLVKPSDTLSLTCTVSGYSITSDYTWNWIRQTPGKGLEWIGHITYSGSVSYNPSLRSRVTISRDTSKNQFSLKLSSVTAADTATYSCARALYYPWYFDVWGTGTTVTVSS
VL: EIVLTQSPATLSLSPGERATLSCRASSSVGYIHWYQQKPGQAPRPLIYTTSYRATGIPARFSGSGSGTDNTLTISSLEPEDSAVYYCQQWSSYPPITFGGGTKLEVKR
notes: Human IgG1/kappa
B1: no binding (tested: log -7.5 (about 3e-8 M)) (B7H3 (ELISA coat) [1]); no binding (tested: log -7.5 (about 3e-8 M)) (B7H7 (ELISA coat) [2]); no binding (tested: log -7.5 (about 3e-8 M)) (human PD-L1 (ELISA coat) [3]). B1: no binding (tested: log -7.5 (about 3e-8 M)) (B7H6 (ELISA coat) [4]); no binding (tested: log -7.5 (about 3e-8 M)) (CTLA4 (ELISA coat) [5]); no binding (tested: log -7.5 (about 3e-8 M)) (PD-1 (ELISA coat) [6]). B1: no binding (tested: log -7.5 (about 3e-8 M)) (B7H4 (ELISA coat) [7]).

B2: anti-VISTA clone V4-C26 IgG1 (antibody, V domains shown)
VH: B1 VH
VL: B1 VL with L46I, Y52N
notes: Human IgG1/kappa
B2: no binding (tested: log -7.5 (about 3e-8 M)) (PD-1 (ELISA coat) [8]); no binding (tested: log -7.5 (about 3e-8 M)) (B7H6 (ELISA coat) [9]); no binding (tested: log -7.5 (about 3e-8 M)) (human PD-L1 (ELISA coat) [10]). B2: no binding (tested: log -7.5 (about 3e-8 M)) (CTLA4 (ELISA coat) [11]); no binding (tested: log -7.5 (about 3e-8 M)) (B7H4 (ELISA coat) [12]); no binding (tested: log -7.5 (about 3e-8 M)) (B7H7 (ELISA coat) [13]). B2: no binding (tested: log -7.5 (about 3e-8 M)) (B7H3 (ELISA coat) [14]).

B3: anti-VISTA clone V4-C27 IgG1 (antibody, V domains shown)
VH: B1 VH
VL: B1 VL with T49A, S51Y, Y52N
notes: Human IgG1/kappa
B3: no binding (tested: log -7.5 (about 3e-8 M)) (human PD-L1 (ELISA coat) [15]); no binding (tested: log -7.5 (about 3e-8 M)) (B7H6 (ELISA coat) [16]); no binding (tested: log -7.5 (about 3e-8 M)) (B7H7 (ELISA coat) [17]). B3: no binding (tested: log -7.5 (about 3e-8 M)) (PD-1 (ELISA coat) [18]); no binding (tested: log -7.5 (about 3e-8 M)) (B7H3 (ELISA coat) [19]); no binding (tested: log -7.5 (about 3e-8 M)) (CTLA4 (ELISA coat) [20]). B3: no binding (tested: log -7.5 (about 3e-8 M)) (B7H4 (ELISA coat) [21]).

B4: anti-VISTA clone 4M2-C12 IgG1 (antibody)
heavy: not shown
light: DIVITQTPAILSTSPGEKVTMTCRASSSVGYIHWYQQKPGSSPKPWIYATSNLASGVPARFSGSGSGTSNSLTITRVEAEDAATYYCQQWSSYPPITFGGGTKLEVKRTVAAPSVFIFPPSDEQLKSGTASVVCLLNNFYPREAKVQWKVDNALQSGNSQESVTEQDSKDSTYSLSSTLTLSKADYEKHKVYACEVTHQGLSSPVTKSFNRGEC
notes: also called V4; 4M2-C12-hIgG1
B4: no binding (tested: log -7.5 (about 3e-8 M)) (B7H6 (ELISA coat) [22]); no binding (tested: log -7.5 (about 3e-8 M)) (PD-1 (ELISA coat) [23]); no binding (tested: log -7.5 (about 3e-8 M)) (B7H7 (ELISA coat) [24]). B4: no binding (tested: log M about -7.5) (CTLA4 (ELISA coat) [25]); no binding (tested: log M about -6.7) (human PD-L1 (ELISA coat) [26]); no binding (tested: log M about -6.2) (human HER3). B4: no binding (tested: log M about -7.5) (B7H3 (ELISA coat) [27]); no binding (tested: log -7.5 (about 3e-8 M)) (B7H4 (ELISA coat) [28]).
